In article PMC7702011 (2020):

Target: Recombinant NPTN polypeptide (UniProt Q9Y639 29-398)
Assay: MST

Sequence of Recombinant NPTN polypeptide (Q9Y639 29-339): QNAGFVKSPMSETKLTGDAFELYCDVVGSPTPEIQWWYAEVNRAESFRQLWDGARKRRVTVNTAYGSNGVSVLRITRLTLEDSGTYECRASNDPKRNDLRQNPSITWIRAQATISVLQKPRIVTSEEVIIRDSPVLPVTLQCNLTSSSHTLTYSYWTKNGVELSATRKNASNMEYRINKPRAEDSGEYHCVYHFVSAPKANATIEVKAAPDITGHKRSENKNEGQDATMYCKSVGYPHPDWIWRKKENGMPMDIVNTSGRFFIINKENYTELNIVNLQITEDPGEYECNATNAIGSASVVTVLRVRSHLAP

B1: Recombinant MANF polypeptide, labeled with Alexa 647 (ligand)
chain: LRPGDCEVCISYLGRFYQDLKDRDVTFSPATIENELIKFCREARGKENRLCYYIGATDDAATKIINEVSKPLAHHIPVEKICEKLKKKDSQICELKYDKQIDLSTVDLKKLRVKELKKILDDWGETCKGCAEKSDYIRKINELMPKYAPKAASARTDL
modifications: fluorescently labeled with Alexa 647
B1 was tested, and the Kd was 104 nM.
